Experimental data from patent US20090258007A1 (Kyowa Kirin, published 2009).

How the values were obtained:
[1] = target: T1, human PERP with myc-His tag expressed in CHO/DG44 cells (PERP/CHO cell) (human, UniProt Q96FX8 1-193); test: flow cytometry on PERP/CHO cells against CHO/DG44 cells, 10 µg/ml
T1 construct: Four-pass membrane protein of 193 amino acids; On intact cells in FMAT and flow cytometry; as Triton X lysate in sandwich ELISA and immunoprecipitation; SDS-denatured in Western blotting; also called PERP/CHO cells; PERP-expressing cell line; not shown: C-terminal myc-His tag from pcDNA 3.1(-)/myc-His C
Experimental: As the cells, PERP/CHO cells and CHO/DG44 cells were used. The cells which were cultured for 2 to 3 days on an Iscove's Modified Dulbecco's medium (manufactured by Invitrogen) containing 10% fetal bovine serum and peeled off by 0.02% EDTA solution (manufactured by Nacalai Tesque) were washed with PBS and blocked for 20 minutes at ice temperature using BSA-PBS in order to avoid non-specific antibody adsorption. […] Again, washing was carried out 3 times using PBS by a centrifugation method, followed by suspension in PBS, and wavelength of 510 to 530 nm excited by laser beam 488 nm Ar was measured by a flow cytometer (manufactured by Beckman Coulter).

[2] = target: T1, human PERP with myc-His tag expressed …; test: flow cytometry on PERP/CHO cells, 5-fold dilutions from 20 µg/mL
Experimental: After washing with a buffer for FCM twice, a solution in which PE-labeled anti-human IgG (H+L) antibody (manufactured by Beckman Coulter) was diluted 50-fold with a buffer for FCM was added thereto at 50 μL/well. After reaction in ice shading from the light for 30 minutes, washing with a buffer for FCM was carried out 3 times and fluorescence intensity was measured using a flow cytometer.

| binding result [1] | binding result [2] | Binder |
| --- | --- | --- |
| binds |  | anti-PERP mouse antibody KM3411 (antibody, V domains shown, Used as hybridoma culture supernatant or purified antibody; also called monoclonal antibody KM3411; monoclonal antibody produced by hybridoma KM3411 (FERM BP-8643)) VH: DVQLQESGPGLVKPSQSLSLTCTVTGFSITTEYAWNWIRQFPGNRLEWMGYIGYTGRTNYSPSLKSRISITRDTSKNQFFLQLNSVTTEDTATYYCTRMDYWGQGTSVTVSS VL: QIVLIQSPVIMSASPGEKVTITCSASSSVSYMHWFQQKPGTSPKLWIYSTSNLASGVPARFSGSGSGTSYSLTISRMEAEDAATYYCQQRSSYPPTFGAGTKLELK |
|  | binds | anti-PERP chimeric antibody KM3481 (antibody, V domains shown, Human chimeric antibody: VH and VL of KM3411 with human CH and CL from the vector pKANTEX93 (WO 97/10354)) VH: DVQLQESGPGLVKPSQSLSLTCTVTGFSITTEYAWNWIRQFPGNRLEWMGYIGYTGRTNYSPSLKSRISITRDTSKNQFFLQLNSVTTEDTATYYCTRMDYWGQGTSVTVSS VL: QIVLIQSPVIMSASPGEKVTITCSASSSVSYMHWFQQKPGTSPKLWIYSTSNLASGVPARFSGSGSGTSYSLTISRMEAEDAATYYCQQRSSYPPTFGAGTKLELK |
